Experimental data published in patent US8053415B2, “Compounds having RD targeting motifs” (Washington University in St. Louis, priority 2005, dated 2011).
“Also recorded” adds a separate entry of the source. Where a SMILES comes first, the peptide text is derived from it.

What was measured:
VSMC wild-type cells = assay: Internalization in wild-type vascular smooth muscle cells; assay type: cell-based, mice; details: 1 μM, 1 hr, 37° C.
Description: (§1) Having shown that cypate-GRD preferentially binds to β3 integrin in ABI-positive cells, it was hypothesized that it would not internalize in β3 knockout cells. Vascular smooth muscle cells (VSMCs) from the aortas of β3^−/−apoE^−/− and β3^+/+apoE^−/− mice were provided by Dr. Clay F. Semenkovich (Washington University Medical School in St. Louis, Mo.). VSMCs were maintained at 37° C. in humidified atmosphere containing 5% CO2 in Dulbecco's modified Eagle's medium (DMEM) containing 10% fetal bovine serum, 4 mmol/L L-glutamine, 1 mM sodium pyruvate, 100 U/ml penicillin, 0.25 μg/ml amphotericin, 100 μg/ml streptomycin. The internalization of cypate-GRD and cyclic cypate-RGD were compared in β3 knockout and wild-type VSMC cells, essentially as described above.

β3 knockout VSMC cells = assay: Internalization in integrin β3 knock-out vascular smooth muscle cells; assay type: cell-based, mice; details: 1 μM, 1 hr, 37° C.
Description: as §1

A549 cells = assay: MTT cytotoxicity assay; assay type: cell-based, human; details: up to 100 μM solution in 20% aqueous DMSO, 24 h
Description: Cytotoxicity assays were performed using the 3-(4,5-dimethylthiazol-2-yl)-2,5-diphenyltetrazolium bromide (MTT) based in vitro toxicology assay kit (Sigma-Aldrich, St. Louis, Mo.) per the manufacturer's protocol. Briefly, A549 cells were grown in 96 well plates to 75% confluence in phenol red free Dulbecco's Modified Eagle's Medium supplemented with 10% fetal calf serum, 100 units/mL penicillin and 100 units/mL streptomycin. A concentration range (0-125 μM) of the compound to be tested was added to each well in a final volume of 100 μL/well and the cells were incubated for 24 h at 37° C. in 5% CO2. After incubation, the medium was removed and replaced with 100 μL/well phenol red free medium. Absorbances at 570 nm and 690 nm were measured. MTT (10 μL) was added to each well and the cells were incubated for 2 h. […] Absorbance at 570 nm and 690 nm were measured. The Δ570 and Δ690 were determined by taking the difference of the absorbances before and after the addition of MTT. The percent of viable cells, B, was determined according to the formula:
[formula] where λΔ570 was the absorbance of formazan crystals at 570 nm and λΔ690 was background at 690 nm.
The conventional MTT protocol typically involves background subtraction at 690 nm from the absorbance at 570 nm. […] To circumvent this problem, the background absorbance at 690 nm was adjusted by running parallel experiments with and without MTT. […]

A549 tumor = assay: In vivo fluorescence optical imaging and ex vivo organ distribution in A549 tumor-bearing nude mice; details: for uptake / retention in A549 tumor: 0.3 μmol per kg via lateral tail vein, fluorescence imaging
Description: All in vivo studies were performed in compliance with the Washington University in St Louis Animal Study Committee's requirements for the care and use of laboratory animals in research. Nude mice (18-22 g) were anesthetized with xylazine/ketamine cocktail via intraperitoneal injection and placed in a supine position. The mice were injected subcutaneously with A549 cells (1×10^6) in the lower back of the mice. Tumor masses were palpable at 5-7 days post implant, which reached 5 mm in 10-15 days. Prior to injection of the probe, the mice were anesthetized as described above. A 29-gauge needle was used to inject the probes into the mouse via the lateral tail vein. The molecular probe (100 μL) was injected via the lateral tail vein at 0.3 μmol per kg of body weight. […] [SEQ ID NO:1] were constituted in a vial, and doses of 0.3 μmol per kg of body weight were injected into the A549 tumor-bearing mice.
A non-invasive in vivo continuous wave fluorescence imaging apparatus was used to visualize the distribution and preferential tissue uptake of the cypate-peptide molecular beacons in the nude mice (Achilefu (2004) Technol. Cancer Res. Treat. 3:393-409, incorporated herein by reference). Light from two laser diodes of nominal wavelength 780 nm and nominal power of 50 mW was launched into a fiber optic bundle. Two laser diodes were used to produce as much uniform illumination of the whole animal or organ parts as possible. The nominal 50 mW of incident power was reduced to about 44 mW at the output of the fiber optic bundle. A de-focusing lens in position after the bundle expanded the beam such that nearly the whole animal was illuminated. A Photometrics CCD camera (16 bit, 1024×1024 pixel, back illuminated, thermoelectric Peltier cooled with forced air) was used to capture the emitted photons. An interference filter (830 nm) was mounted in front of the CCD camera input lens such that only emitted fluorescent light from the contrast agent was imaged. Real-time acquisition, display and data processing software (WinView/32) was used to obtain the optical image. The samples were dissolved in 20% aqueous DMSO and animals were injected with doses of 0.3 μmol/kg body weight via the lateral tail vein. Injected volumes were 100 μL for each mouse. Data analysis consisted of subtracting (pixel by pixel) the pre-injection image from the post injection images, and displaying the false color results. Integration of the relative fluorescence intensities of tumor vs. surrounding tissues indicated the extent of selective uptake of the contrast agent. At the completion of the study, the mice were euthanized and some organ parts were excised and rinsed with water. The tissues were placed under the CCD camera and the fluorescence emission from each organ was measured after excitation with the 780 nm laser sources. Tissue parts, instead of whole organs, were used to minimize problems associated with depth-dependent non-linear fluorescence emission. A statistical program in the WinView package was used to estimate the mean fluorescence intensity per organ part.
In vivo optical imaging studies using the cypate-peptide optical probes were performed and analyzed as described above in Example 1. […]

CC1(C)C(/C=C/C=C/C=C/C=C2/N(CCC(=O)NCC(=O)N[C@@H](CCCNC(=N)N)C(=O)N[C@@H](CC(=O)O)C(=O)N[C@@H](CO)C(=O)N3CCC[C@H]3C(=O)N[C@@H](CCCCN)C(=O)O)c3ccc4ccccc4c3C2(C)C)=[N+](CCC(=O)O)c2ccc3ccccc3c21 [Cyp-GRD, Cypate-GRDSPK] (HELM PEPTIDE1{[CC1(C)C(/C=C/C=C/C=C/C=C2/N(CCC(=O)[*:2])c3ccc4ccccc4c3C2(C)C)=[N+](CCC(=O)O)c2ccc3ccccc3c21].G.R.D.S.P.K}$$$$V2.0)
internalization in VSMC wild-type cells (VSMC wild-type cells): internalized | internalization in β3 knockout cells (β3 knockout VSMC cells): not observed | cell proliferation or cytotoxicity (percent of viable cells, MTT) (A549 cells): did not induce cell proliferation or cytotoxicity; also recorded: not cytotoxic | clearance from blood (A549 tumor; 0.3 μmol per kg i.v.): slow clearance | time post injection after which selective tumor uptake became obvious (A549 tumor; 0.3 μmol per kg i.v.): > 8 h | time the whole animal fluoresced after injection before clearance began (A549 tumor; 0.3 μmol per kg i.v.): up to 2 h | uptake / retention in A549 tumor (A549 tumor): preferential uptake of the probes in the tumor | uptake / retention in A549 tumor (A549 tumor; listed as cypate-GRD): preferentially localized | accumulation / retention in nontarget tissues (A549 tumor; 24 h post injection): much lower | tumor uptake compared among the cypate-peptide conjugates (A549 tumor; 24 h post injection): higher uptake in the tumor tissue
